# Reference: patent US20240368295A1 (SUTRO BIOPHARMA, published 2024)
# Residue numbers refer to the chain shown, from its start.
# B1: SRP2265-F05 (antibody, IgG1, V domains shown)
# VH: EVQLVESGGGLVQPGGSLRLSCAASGFNIIAPGIHWVRQAPGKGLEWVGFINPAGGYTDYADSVKGRFTISADTSKNTAYLQMNSLRAEDTAVYYCARDYVNAYWTYVLDYWGQGTLVTVSS
# VL: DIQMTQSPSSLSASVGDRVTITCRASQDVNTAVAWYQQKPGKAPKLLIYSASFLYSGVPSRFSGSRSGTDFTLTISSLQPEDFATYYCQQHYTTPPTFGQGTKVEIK
# notes: IgG1 with trastuzumab light chain, His/FLAG-tagged, cell-free expressed; also called Antibody 3
# B2: SRP2265-F06 (antibody, IgG1, V domains shown)
# VH: B1 VH with I30S, A31Y, V101I, N102L, A103Q
# VL: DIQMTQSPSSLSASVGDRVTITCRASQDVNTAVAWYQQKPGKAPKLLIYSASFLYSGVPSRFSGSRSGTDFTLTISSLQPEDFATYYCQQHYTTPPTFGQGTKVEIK
# notes: IgG1 with trastuzumab light chain, His/FLAG-tagged, cell-free expressed; also called Antibody 2
# B3: SRP2265-D11 (antibody, IgG1, V domains shown)
# VH: B1 VH with I30S, A31G, G55A, V101I, N102Y, A103Q
# VL: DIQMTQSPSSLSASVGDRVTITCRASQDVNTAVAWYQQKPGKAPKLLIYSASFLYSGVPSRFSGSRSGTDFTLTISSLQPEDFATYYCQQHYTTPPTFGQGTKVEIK
# notes: IgG1 with trastuzumab light chain, His/FLAG-tagged, cell-free expressed; also called Antibody 9
# B4: SRP2265-C02 (antibody, IgG1, V domains shown)
# VH: B1 VH with I30G, A31V, P32S, D62G, V101I, N102Y, A103S
# VL: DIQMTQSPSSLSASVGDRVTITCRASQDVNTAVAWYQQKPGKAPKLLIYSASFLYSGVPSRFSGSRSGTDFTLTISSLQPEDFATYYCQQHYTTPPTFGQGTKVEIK
# notes: IgG1 with trastuzumab light chain, His/FLAG-tagged, cell-free expressed; also called Antibody 12
# B5: SRP2265-C03 (antibody, IgG1, V domains shown)
# VH: B1 VH with S25P, I30S, A31V, N102P, A103Q
# VL: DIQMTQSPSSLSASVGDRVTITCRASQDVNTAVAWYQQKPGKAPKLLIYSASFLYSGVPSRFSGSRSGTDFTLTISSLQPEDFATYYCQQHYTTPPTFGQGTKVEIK
# notes: IgG1 with trastuzumab light chain, His/FLAG-tagged, cell-free expressed; also called Antibody 11
# B6: SRP2265-B06 (antibody, IgG1, V domains shown)
# VH: B1 VH with I30R, A31V, P32S, N102Q
# VL: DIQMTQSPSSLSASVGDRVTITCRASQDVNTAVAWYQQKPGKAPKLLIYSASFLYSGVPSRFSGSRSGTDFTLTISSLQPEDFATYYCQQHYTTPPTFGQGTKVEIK
# notes: IgG1 with trastuzumab light chain, His/FLAG-tagged, cell-free expressed; also called Antibody 5
# B7: SRP2288-A03 (antibody, IgG1, V domains shown)
# VH: EVQLVESGGGLVQPGGSLRLSCAASGFNINNSWIHWVRQAPGKGLEWVGWIYPYIGFTEYADSVKGRFTISADTSKNTAYLQMNSLRAEDTAVYYCARDYDLRYLTGVLDYWGQGTLVTVSS
# VL: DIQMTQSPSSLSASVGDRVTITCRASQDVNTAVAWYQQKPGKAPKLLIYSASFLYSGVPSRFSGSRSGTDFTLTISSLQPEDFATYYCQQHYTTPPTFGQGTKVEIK
# notes: IgG1 with trastuzumab light chain, His/FLAG-tagged, cell-free expressed; also called Antibody 15
# B8: 9A8 (antibody, V domains shown)
# VH: AVTLDESGGGLQTPGGTLSLVCKASGFTFSSFNMFWVRQAPGKGLEWVAYIRNDGNSASYGPAVKGRATISRDNGQSTVRLQLNNLRAEDTATYYCAKTTCIGSGGCIDTWGHGTEVIVSS
# VL: ALTQPSSVSANPGETVKITCSGGSSDYGWFQQKSPGSAPVTVIYSNNQRPSGIPSRFSGSKSGSTGTLTITGVQAEDEAIYYCANVDYTDDVFGAGTTLTVL
# notes: chicken HybriFree-derived antibody; also called Antibody 30
# B9: 10G5 (antibody, V domains shown)
# VH: B8 VH with T17V, R52S, N56S, A58T, Y95F
# VL: B8 VL with S24N, S25Y, F30Y, V42L, S45Y, Q48K, G52D, Y88S
# notes: chicken HybriFree-derived antibody; also called Antibody 31
# B10: 11D6 (antibody, V domains shown)
# VH: B8 VH with K43E, N56R, A58T, A92G, Y95F, I102V
# VL: B8 VL with K17E, S24N, S45R, G52D, K61G, G66N, A84G, Y88F
# notes: chicken HybriFree-derived antibody; also called Antibody 32
# B11: SRP2291-E06 (antibody, IgG1, V domains shown)
# VH: EVQLVESGGGLVQPGGSLRLSCAASGFNISPYTIHWVRQAPGKGLEWVAHIFPSGGYTDYADSVKGRFTISADTSKNTAYLQMNSLRAEDTAVYYCARDFYDRYATYVLDYWGQGTLVTVSS
# VL: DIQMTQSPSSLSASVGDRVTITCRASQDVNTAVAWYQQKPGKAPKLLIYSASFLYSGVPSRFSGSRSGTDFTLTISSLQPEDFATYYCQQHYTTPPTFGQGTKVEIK
# notes: IgG1 with trastuzumab light chain, His/FLAG-tagged, cell-free expressed; also called Antibody 25
# B12: SRP2291-A04 (antibody, IgG1, V domains shown)
# VH: EVQLVESGGGLVQPGGSLRLSCAASGFNISSYGIHWVRQAPGKGLEWVGFISPYDGYTEYADSVKGRFTISAGTSKNTAYLQMNSLRAEDTAVYYCARDFNDRYFTYVLDYWGQGTLVTVSS
# VL: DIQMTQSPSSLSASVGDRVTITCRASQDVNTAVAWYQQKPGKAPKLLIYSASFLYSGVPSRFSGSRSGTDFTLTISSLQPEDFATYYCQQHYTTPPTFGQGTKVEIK
# notes: IgG1 with trastuzumab light chain, His/FLAG-tagged, cell-free expressed; also called Antibody 28
# B13: SRP2290-A02 (antibody, IgG1, V domains shown)
# VH: EVQLVESGGGLVQPGGSLRLSCAASGFNISTRWIHWVRQAPGKGLEWVGVITPSAGYTHYADSVKGRFTISAGTSKNTAYLQMNSLRAEDTAVYYCARDLGSRYWVGVFDYWGQGTLVTVSS
# VL: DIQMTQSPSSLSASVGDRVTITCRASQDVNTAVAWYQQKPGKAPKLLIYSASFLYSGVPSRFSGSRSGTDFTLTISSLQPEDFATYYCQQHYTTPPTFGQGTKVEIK
# notes: IgG1 with trastuzumab light chain, His/FLAG-tagged, cell-free expressed; also called Antibody 22
# B14: SRP2290-C07 (antibody, IgG1, V domains shown)
# VH: EVQLVESGGGLVQPGGSLRLSCAASGFNITYDWIHWVRQAPGKGLEWVGVITPFDGYTYYADSVKGHFTISADTSKNTAYLQMNSLRAEDTAVYYCARDMGVGYWVGFSDYWGQGTLVTVSS
# VL: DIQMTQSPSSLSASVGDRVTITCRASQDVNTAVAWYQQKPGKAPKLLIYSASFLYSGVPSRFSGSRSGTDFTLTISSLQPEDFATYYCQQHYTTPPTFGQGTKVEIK
# notes: IgG1 with trastuzumab light chain, His/FLAG-tagged, cell-free expressed; also called Antibody 19
# B15: SRP2290-G01 (antibody, IgG1, V domains shown)
# VH: B14 VH with T30S, Y31P, D32Y, F54P, D55S, Y57F, H67R, M83V, M100L
# VL: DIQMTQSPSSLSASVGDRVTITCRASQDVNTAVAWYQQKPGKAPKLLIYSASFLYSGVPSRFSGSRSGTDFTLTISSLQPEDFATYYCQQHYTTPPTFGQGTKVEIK
# notes: IgG1 with trastuzumab light chain, His/FLAG-tagged, cell-free expressed; also called Antibody 17
# B16: SRP2290-C08 (antibody, IgG1, V domains shown)
# VH: B14 VH with T30Q, Y31P, D32Y, F54P, D55S, H67R, M100W
# VL: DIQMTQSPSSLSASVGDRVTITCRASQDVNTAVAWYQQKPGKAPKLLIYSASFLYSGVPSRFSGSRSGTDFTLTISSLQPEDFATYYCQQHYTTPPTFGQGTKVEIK
# notes: IgG1 with trastuzumab light chain, His/FLAG-tagged, cell-free expressed; also called Antibody 21
# B17: SRP2290-D05 (antibody, IgG1, V domains shown)
# VH: B13 VH with S30A, T31S, H59Y, G73D, S102Y, R103G, V108F, F109S
# VL: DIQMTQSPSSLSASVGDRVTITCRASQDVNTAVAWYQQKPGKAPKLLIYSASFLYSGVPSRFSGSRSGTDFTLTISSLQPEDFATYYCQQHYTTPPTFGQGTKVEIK
# notes: IgG1 with trastuzumab light chain, His/FLAG-tagged, cell-free expressed; also called Antibody 20
# B18: SRP2290-D02 (antibody, IgG1, V domains shown)
# VH: B13 VH with T31S, R32Y, V48M, S54A, H59Y, G73D, S102H
# VL: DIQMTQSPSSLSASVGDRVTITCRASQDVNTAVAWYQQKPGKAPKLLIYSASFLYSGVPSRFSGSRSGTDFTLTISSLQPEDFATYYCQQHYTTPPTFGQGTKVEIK
# notes: IgG1 with trastuzumab light chain, His/FLAG-tagged, cell-free expressed; also called Antibody 18
# B19: SRP2291-D07 (antibody, IgG1, V domains shown)
# VH: B12 VH with S30K, S31D, Y32T, G33Y, F50V, G73D, R98H, N101Y, F105S
# VL: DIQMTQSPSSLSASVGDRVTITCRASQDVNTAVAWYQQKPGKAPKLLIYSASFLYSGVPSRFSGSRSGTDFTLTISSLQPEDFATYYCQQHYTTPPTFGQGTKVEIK
# notes: IgG1 with trastuzumab light chain, His/FLAG-tagged, cell-free expressed; also called Antibody 26
# B20: SRP2291-A01 (antibody, IgG1, V domains shown)
# VH: B11 VH with S30D, V37A, F52S, S54Y, G55D, A105S
# VL: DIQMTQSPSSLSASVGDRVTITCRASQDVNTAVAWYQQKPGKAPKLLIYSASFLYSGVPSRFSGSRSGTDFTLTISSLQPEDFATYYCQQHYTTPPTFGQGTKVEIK
# notes: IgG1 with trastuzumab light chain, His/FLAG-tagged, cell-free expressed; also called Antibody 29
# B21: SRP2291-F10 (antibody, IgG1, V domains shown)
# VH: B12 VH with S30D, S31P, G33T, F50W, G73D, F100Y, N101Y, F105S, Q114R
# VL: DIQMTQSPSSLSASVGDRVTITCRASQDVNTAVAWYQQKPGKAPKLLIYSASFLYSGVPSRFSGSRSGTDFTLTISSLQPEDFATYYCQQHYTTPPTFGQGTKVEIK
# notes: IgG1 with trastuzumab light chain, His/FLAG-tagged, cell-free expressed; also called Antibody 27
# B22: SRP2291-G05 (antibody, IgG1, V domains shown)
# VH: B11 VH with S30A, P31A, A49G, H50W, F52S, S54Y, D59E, Y101H, Y107F
# VL: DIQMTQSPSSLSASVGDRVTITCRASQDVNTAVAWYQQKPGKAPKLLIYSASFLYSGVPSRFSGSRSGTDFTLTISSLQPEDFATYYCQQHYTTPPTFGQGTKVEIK
# notes: IgG1 with trastuzumab light chain, His/FLAG-tagged, cell-free expressed; also called Antibody 24
# Molecular target: T1, BCMA on BCMA-positive NCI-H929, ARP-1 and U266B1 cells (human, UniProt Q02223 1-184)
# T1 sequence: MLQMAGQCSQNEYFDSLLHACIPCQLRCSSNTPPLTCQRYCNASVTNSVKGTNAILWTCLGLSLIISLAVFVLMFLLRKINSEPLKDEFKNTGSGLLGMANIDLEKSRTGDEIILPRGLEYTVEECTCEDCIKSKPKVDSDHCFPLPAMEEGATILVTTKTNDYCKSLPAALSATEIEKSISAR
# Experiment: cell-based or functional assay
Binder,"ARP-1, SC225-conjugated 2° antibody cell killing, EC50 [nM]","ARP-1, SC225-conjugated 2° antibody cell killing, Span [%]","U266B1, SC225-conjugated 2° antibody cell killing, EC50 [nM]","U266B1, SC225-conjugated 2° antibody cell killing, Span [%]"
B1,1.8,52,1.2,61
B2,1.2,62,0.9,59
B3,1.9,51,1,54
B4,1.5,55,0.7,51
B5,2.2,70,1.1,61
B6,1.6,67,0.6,59

# Molecular target: cynomolgus BCMA on 293T-cynoBCMA cells (cynomolgus, UniProt Q02223 1-184 (human entry))
# Sequence (Q02223 other isoform, or with tags, fused parts or gaps): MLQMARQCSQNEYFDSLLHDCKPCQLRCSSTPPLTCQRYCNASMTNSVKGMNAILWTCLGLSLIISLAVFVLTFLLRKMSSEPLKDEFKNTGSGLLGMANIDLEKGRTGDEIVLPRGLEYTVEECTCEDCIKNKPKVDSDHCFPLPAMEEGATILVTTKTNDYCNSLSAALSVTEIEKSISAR
# Experiment: FACS, 293T-cynoBCMA cells
# Method: (§1) Variants for which sufficient protein was purified in secondary screening were tested in a fluorescence-activated cell sorting (FACS) cell-binding assay. […] 6-12 point dilutions of anti-BCMA variants starting from concentrations of about 100-200 nM antibody were dispensed into each well using a BioMekFX (Beckman Coulter). Cells were then incubated on ice for 1 hr, washed with FACS buffer and incubated for 1 hr on ice with […] FACS buffer containing […] Alexa647-conjugated Goat Anti-Human IgG dispensed using BioMekFX (Beckman Coulter). Cells were then washed 2× with FACS buffer and fixed for 10 minutes in […] PBS with 2% PFA prior to fluorescence detection. Samples were acquired using a Beckton Dickinson LSRII FACS. Geometric Mean Fluorescence Intensity of BCMA antibody binding was analyzed using FlowJo® software (Trec Star, Inc.).
Binder,Bmax (MFI),Kd [nM]
B7,46800,–
B8,17800,–
B9,24400,–
B10,27700,–
B1,18500,3
B2,25800,–
B11,68300,–
B3,21900,2.5
B12,63800,–
B4,17400,2.5
B5,24100,4.9
B6,26600,3.4
B13,70300,–
B14,78100,–
B15,77100,–
B16,71000,–
B17,57600,–
B18,75800,–
B19,67900,–
B20,67200,–
B21,66500,–
B22,62700,–

# Molecular target: T1, BCMA on BCMA-positive NCI-H929, ARP-1 …
# Experiment: cell-based or functional assay
# Remark: another data set of the same source
Binder,"ARP-1, SC239-conjugated 2° antibody cell killing, EC50 [nM]","ARP-1, SC239-conjugated 2° antibody cell killing, Span [%]","U266B1, SC239-conjugated 2° antibody cell killing, EC50 [nM]","U266B1, SC239-conjugated 2° antibody cell killing, Span [%]"
B8,2.4,82,2.3,42
B9,3.5,82,1.9,63
B10,3.8,83,1.1,67

# Molecular target: T1, BCMA on BCMA-positive NCI-H929, ARP-1 …
# Experiment: FACS, NCI-H929 cells
# Method: as §1
Binder,Bmax (MFI),Kd [nM]
B7,16300,–
B8,21100,–
B9,25800,–
B10,26400,–
B1,12700,10.3
B2,11400,–
B11,34400,–
B3,9620,4.4
B12,33900,–
B4,11200,4.3
B5,11500,4.4
B6,11900,6.2
B13,33600,–
B16,37800,–
B17,21800,–
B18,33600,–
B19,28700,–
B20,32500,–
B21,33800,–
B22,23200,–

# Molecular target: T1, BCMA on BCMA-positive NCI-H929, ARP-1 …
# Experiment: cell-based or functional assay
# Remark: another data set of the same source
Binder,"U266B1, SC225-conjugated 2° antibody cell killing, EC50 [nM]","U266B1, SC225-conjugated 2° antibody cell killing, Span [%]"
B7,2.3,42
B11,27,1.1
B12,49,0.8
B13,1.6,70
B14,0.93,75
B15,1.4,70
B16,1.1,73
B17,0.96,50
B18,1.4,60
B19,16,2
B20,58,1.1
B21,46,1
B22,20,0.8
